# Source: the DeepSol protein solubility set
# Assay: soluble on expression in E. coli; label from the status in PepcDB or PDB records
row,Sequence,soluble on expression in E. coli
1,VPGILMCEIFIRANQRSYSVQARSLRLHGVATSVRLEQLFWDVLEEIAARDGMRVTQLIERLYDELVQYRGEAANFTSFLRVCCLRYQVLQAEGRIPADATVPIRSLDAQAVLRGLPANLYDSR,not soluble
2,MTQQKLELTWFNKDQALIPQERGRYGYAWVDPHDPRYCQTHYLIEGETITGEQAPKQDGTQYGERADLEPTTDNLLINGESGDVLEALTRVPELADKYVGKVKCIYIDPPFNTAQTFANYEDNLEHSVWLTMMRDRLLHMKKLLSEDGSIWVHLDDVENHRMRLLMDEVFGAGNFVAEVVWEKTYSPRNDSKGIPAVTDTILVYRKSDQFSPNRLPRTAEMNARYKNPDHDRNGPWKSGDTTAPGNMSGKVQHPSVFAIQHPVTGQFIYPTYGRMWCFGQERILSSLSRYAPYRLAEPDMKSRSKRTGIPEEQLRADVFDLVVDETARQGDKTQAFRNISLGNWPEFFITDKGFGRKVPMSKSDGRVAPNLLRWEEVGHTDGAKKEITALFPNQAA,not soluble
3,MLKVEKFKKLKRFEVYYCLKNSFLEEVDIEMKYSCSITTIMSNGSASLLMNWEELTPGHCFTSYTTNPIAGDYGLNASAIDGHTEELVATHPAGTLENATQ,not soluble
4,MEKLHQCYWKSGEPQSDDIEASRMKRAAAKHLIERYYHQLTEGCGNEACTNEFCASCPTFLRMDNNAAAIKALELYKINAKLCDPHPSKKGASSAYLENSKGAPNNSCSEIKMNKKGARIDFKDVTYLTEEKVYEILELCREREDYSPLIRVIGRVFSSAEAL,soluble
5,MTTLTQVRPASVFVVSGGAKGITAQCVIELAQHQPCRFILLGRSEVIENEPDFARDCVEESVLKKAIMQHLLAQGEKPTPMSVQKVYHKIVSSREIKATLEAIAATGSQVEYIDVDVTNVAELRQKLADVGKITGIIHGAGNLADKLIEKKTDQDFEKVYTAKVQGLENLLSCVDANQLEHLVLFSSVAGFYGNMGQSDYAIANEILNKSAHLIKQNYPQCHVVAINWGGWDSGMVTPELKKAFAERGIDIIPVDVGTKMLVNELHPSHHDSTQVVIGSPIIPAPGNIDPQLRSYRIRRRMTVEANPFLLDHVIAGTPVLPATCGMSWMINACEECYPGYRYFRCQDFKILKGITFNDKVASEHILEIQEVAKHGSESIEFKTKVLSKTPEGKIHYHFSAHITIVRELPAAPVYESLDMTEDHTIGAIGKDFYQKGGLSLFHGISFQQITRVLNINSQKITVECCWAEIPLETQGQFPVKWHNPYATDLSTQPLWLWLSHVHQEVCLPGQITKSEQFRAIPRNKPFYVSCEIEHKTPSGVTADIILHDREGKIYFRIYQAKAIIAPMNLHLEHHHHHH,soluble
6,MRFKAELMNAPEMRRALYRIAHEIVEANKGTEGLALVGIHTRGIPLAHRIARFIAEFEGKEVPVGVLDITLYRDDLTEIGYRPQVRETRIPFDLTGKAIVLVDDVLYTGRTARAALDALIDLGRPRRIYLAVLVDRGHRELPIRADFVGKNVPTSRSEVVKVKVEEVDGEDRVELWEREGA,soluble
7,MGSSHHHHHHGKTIFVIVPTNEEQVAFLEALAKQDELNFDWQNPPTEPGQPVVILIPSDMVEWFLEMLKAKGIPFTVYVEEGGSENLYFQGGGGGGAASLGDFGQEYQAIMESAGKGFGMLYRDMTAPPASYQWECVEDLSLQYSVAYASLTEPYTVNVLTSMITVTRTESTPGVSYNLIGIACTYDGNCGDLKRGNLLTFSLRKDLIIIVTGSVLSNGITNFLPVSYYVVQLASSCSSANIANVTRPFSVGASSVWMQLWQ,not soluble
8,HIWLFFIEEGKNHYRVEFRSNGINVREVALKYGGGGHIQASGAVLKSKRDIIRVVQD,not soluble
9,MRLKKLPIRRKMPMELAYIEKLFREEVGLDIKEHKDKAEQISETVVEIYEELLRKGIENANYNGRDYVSYYDLPITEDLERYMNRFIQDRGEEVLKAFVDYLAKLEEELLKAEEALPPLDEELHQKKADILGGIMLMFASVAKQINGDRKLYAESIPVTREVLRTMI,not soluble
10,MGLKLDLTWFDKSTEDFKGEEYSKDFGDDGSVMESLGVPFKDNVNNGCFDVIAEWVPLLQPYFNHQIDISDNEYFVSFDYRDGDW,soluble
11,TPLSQSSSSKNASDVSGSIQPVDSKSGLQMLFSGYRGIGGVQTLDLQQMSSDIPNAETKTVADQVINAWKQMKYTPFGRSTGSFTIRLNPEHLGFVTIKLTNENGMFQSKIIASSQSAKELLEQHLPQLKQSLPNMAVQIDRFTLPVQS,not soluble
12,MSLTTFATEWEKQLELYPEEYRKAYRRVKRASEILLREPEPQVGLTPKEVIWTKNKTKLYRYIPKQEKTQRVPILLIYALINKPYIMDLTPGNSLVEYLVDRGFDVYMLDWGTFGLEDSHLKFDDFVFDYIAKAVKKVMRTAKSDEEGHHHHHH,not soluble
13,MGSDKIHHHHHHMKWSEYANLAQQSLEKFYLADTKEQFLNNFYPTENPEEDNKVFNYWWLAHLVEVRLDAYLRTKKQADLEVAEKTYLHNKNRNGGTLIHDFYDDMLWNALAAYRLYKATGKSIYLEDAQLVWQDLVDTGWNDIMGGGFAWRRPQMYYKNTPVNAPFIILSCWLYNELNETKYLEWAMKTYEWQTKVLVREDGFVEDGINRLEDGTIDYEWKFTYNQGVYIGANLELYRITKEAKYLDTANKTAAISLKELTEDGIFKDEGNGGDEGLFKGIFYRYFTDLIEETANKTYRDFVLNSCQILVENAKLDGYLLMGMNWKEKPSGKIPYSAELSGMIALEMAAKLE,not soluble
14,MGSDKIHHHHHHMSKWQSKEQLIQLLSSLVEIPSITGTEAEVILPDFVVEQLSDLQYFKENPHHLQKNPTGDGRYFVTALVKKSDRTKNTVILVSHFDVVDVQDYGVWKEDAFNPKKLTSMFYAHKDELPDHVREDIEQGEWLFGRGTMDMKCGLALQMAMIEQACEGRFDGNVLLLAVPDEEVNSVGMRAAIPRLLELAREHDLEYKTVLNSEPMFARHPGDQKKYIYTGSIGKVLPGFLCYGKETHVGEPFAGLNGSYMASLITAELELNTDLCDIVEGEASPPPTNLLQRDLKEDYSVQIPHRAVTLFNLFLLEKSMTDVVSLLRQKVTKVAEKIEEKYEKQAYRFSKYNPFIPPNMKVNVLTYEELIAYAIEQHGQEKINEIQSSIIKNREEKDDRAVTIDLVDKLAILCKEKAPMIVLFFAPPYYPAVSSRNNLLIKEVVTEMEKYANLNHNITFENQNYFGGISDLSYVGLQNPLDSMSSLVDNMPLWDKGYSIPLQELEEFDVPVLNMGPVGKDAHQWTERLDVNYAFETLLDMLPICIEKLLVSNKITQV,not soluble
15,MGSDKIHHHHHHMRKLKKYKPTAFIADGSYYDEDAADYAVAFIEALSHTKGLWAGKPFELIDWQEQIIRDLFGILKPDGYRQFNTAYVEIPKKMGKSELAAAIALLLTCGDGEERAEVYGCAADRQQASIVFEVAADMVRMCPALNKRVKLLASTKRLVYLPTNSFYQVLSAEAYSKHGFNIHGVVFDELHTQPNRKLFDVMTKGSGDARTQPLYFLITTAGTDTQSICYETHQKAVDIIEGRKYDPTFYPVIYGAKEEDDWTDPKVWKKANPSLGITVGIDKVRAACESAKQNPAEENSFRQLRLNQWVKQSVRWMPMAKWDACAFPVIPESLEGRVCYGGLDLSSTTDITAFVLVFPPEDETDKYIVLPYFWMPEDNIDLRVRRDHVQYDLWEKQGYILTTEGNVVHYGYIERFIEELGEKYNIREIAFDRWGAVQMVQNLEGAGFTVVPFGQGFKDMSPPTKELMKLTLEERIAHGGHPVLRWMMDNIFIKTDPAGNVKPDKEKSTEKIDGAVATIMALDRAIRCGSGNSGDSVYDERGLIVF,not soluble
16,FHSVLIANVNSGLGELASDADLTQVKGKTLTFGSESSTSGRLMPQYYLEQAGVSLEDFQGEVGFSASHDATIQLVEAGTYDLGMLNEQVWNSRVEAGEVDTNRVNVIWRSPAYYDYHWVISPDVDERYGEG,not soluble
17,MSLSRIIVVTSGKGGVGKTTSSAAIASGLALRGKKTAVIDFDIGLRNLDLIMGCERRVVYDFVNVINGEATLNQALIKDKRNENLFILPASQTRDKDALTKDGVQRVLNDLKEMGFDFIICDSPAGIEQGALMALYYADEAIVTTNPEVSSVRDSDRILGILDSKSMRAEQGQAPIKQHLLLTRYNPARVTQGEMLSVQDVEEILHVPLLGVIPESQAVLNASNKGVPVIFDDQSDAGQAYQDTVARLLGEQVEFRFLTEAKKGIFKRLFGGEGHHHHHH,soluble
18,GPGSMPVPSYWRMACRSYQFTICATSYLLRWRAPAVTQGSGALVKLPHLVRGARLQRGLLVTDAMIMKLGLVDDFIDEMKKQGTELAIYKDVLPNPTIDMVEEASVLYRKNRCDYLVAVGGGSVMDCAKLIGVRQARPRTPLPYMRGLLRVLWPLPPLIAVPTTAGTGSECTIAAVVSDPAKKDKLVVMDPFLTPSHCVLDPALTLTLPKFVTATAGMDALTHVVEAYTNVFHYRTVDKAALRAMELLAKYLPCAYKDGSNLEAREKMLHASYLAGLSFTRAGVGNVHAAAHAVGGLYNAPHGYVNAVILPHVLDMYGSAAHKSLARLAEAANIVGANDAEKAVNFISWVREMNAQMQIPTTLGAGDSRWAPQEEDIPFLVKHAVTEANPFYAVPVIFGEEEMTELFRRVM,not soluble
19,ADPLAATTVADLPVYNGEDVWQRVAQRCRLVDGQGVNERIARQRDWLLNNRGFLTGASKRATPYLHFIVERLDERNMPLELALLPMIESSYNPLANSPAAAAGLWQFIPSTGRQFNLNQSATYDARRDVVASSKAAMDYLTRLHDQFNNDWLLALAAYNAGEGTVARAIDANRRRGMPVDYWHLNLPRETQDYVPRLLALSLVVRNPGAYGVQLTPVANMPYFDVVELNHTVDLTQLAATTGVDEAQLLRLNPAFLRKKTPDGPGRLLIPKTHTQVLTAGIERITGESPTTAVIPASPGKRVIEREPSSQVAERAPTPEPLQAAGREQTAGLMQVLEREPAPESVQPVRREPQPKVVQVARQEPLPGPAQPVQAAEQVTVSDPIQPARQASSQATNERSLLDRRIQKRLYIDDRSSPRKRDEIAYRDEPRELPNGPRVVVYASDPRQ,not soluble
20,MEKFLVIAGPNAIESEELLLKVGEEIKRLSEKFKEVEFVFKSSFDKANRSSIHSFRGHGLEYGVKALRKVKEEFGLKITTDIHESWQAEPVAEVADIIQIPAFLCRQTDLLLAAAKTGRAVNVKKGQFLAPWDTKNVVEKLKFGGAKEIYLTERGTTFGYNNLVVDFRSLPIMKQWAKVIYDATHSVQLPGGLGDKSGGMREFIFPLIRAAVAVGCDGVFMETHPEPEKALSDASTQLPLSQLEGIIEAILEIREVASKYYETIPVK,soluble
21,MAHHHHHHMENIKLGFMGLGQMGSALAHGIANANIIKKENLFYYGPSKKNTTLNYMSSNEELARHCDIIVCAVKPDIAGSVLNNIKPYLSSKLLISICGGLNIGKLEEMVGSENKIVWVMPNTPCLVGEGSFIYCSNKNVNSTDKKYVNDIFNSCGIIHEIKEKDMDIATAISGCGPAYVYLFIESLIDAGVKNGLSRELSKNLVLQTIKGSVEMVKKSDQPVQQLKDNIVSPGGITAVGLYSLEKNSFKYTVMNAVEAACEKSKAMGSK,soluble
22,MGSDKIHHHHHHQISGDTVKIGFITDMSGLYADIDGPGGVEAIKLAISDMKGTVAGKKIELVYADHQNKADVAASKAREWFDTQGVDMLIGGTNSGTALAMTKVAAEKKKPFIAIGAGTSRISNEDCTPYSIHYAYDTVALANGTGSAVTKAGGKSWYFLTADYAFGQSLQNDTSNVVTKSGGQVLGSVKHPLSASDFSSFLLQAQSSKAQILGLANAGGDTINSIKAANEFGITKTMKLAGLLMFINDIHSLGLNATQGMYMTDSWYWNQSPEARAWSRRFFEKMKRMPSSIQAADYSAAMHFLKAVEAAKTDDGDKVMAQMKAMPINDFYAKGSIRKEDGRGIHDMFLLQVKSQQESTEPWDYFKVVEKIPGEQAFTKLADSKCPLVKK,not soluble
